Measurements taken from EP4538285A1.

Target: wild-type human PD-1, expressed on cells (PD1-CD28) (human) (UniProt P10747)
Test: cell-based or functional assay

Sequence of wild-type human PD-1, expressed on cells (PD1-CD28) (human) (P10747 other isoform, or with tags, fused parts or gaps limits assumed): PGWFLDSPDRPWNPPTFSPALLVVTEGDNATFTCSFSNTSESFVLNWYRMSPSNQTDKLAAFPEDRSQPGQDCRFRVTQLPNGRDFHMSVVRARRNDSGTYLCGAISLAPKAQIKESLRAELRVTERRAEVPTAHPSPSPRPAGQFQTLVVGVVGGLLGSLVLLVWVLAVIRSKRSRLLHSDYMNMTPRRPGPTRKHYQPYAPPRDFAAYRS

IL-2 concentration (pg/ml) at 0.8 nM: 432 pg/mL | IL-2 concentration (pg/ml) at 1.6 nM: 440 pg/mL | IL-2 concentration (pg/ml) at 3.2 nM: 440 pg/mL | IL-2 concentration (pg/ml) at 6.4 nM: 56.1 pg/mL | IL-2 concentration (pg/ml) at 12.8 nM: 36.9 pg/mL | IL-2 concentration (pg/ml) at 25.6 nM: 47.7 pg/mL | IL-2 concentration (pg/ml) at 51.2 nM: 80.5 pg/mL | IL-2 concentration (pg/ml) at 102.4 nM: 126 pg/mL
Substance: Tilelizumab (antibody)
